Reference: paper PMC11032371 (Cell Death Discovery, 2024)
Values belong to the binder of their own block, whether it stands above or below them.

What was measured:
monoUb [1] = target: T1, monoUb (UniProt P0CG48 1-76); test: ITC; 293 K; 50 mM HEPES pH 7.4, 50 mM NaCl, 0.5 mM TCEP; cell 50–100 μM, syringe usually 10-fold; 20 injections of 2 μl; averages of at least two experiments; which partner was in the syringe not stated; details: both partners purified
T1 construct: ubiquitin; 15N-labelled in some NMR titrations; also called ubiquitin

M1-diUb [2] = target: T2, M1-diUb (UniProt P0CG48 1-76; P0CG48 1-76); test: as above; details: both partners purified
T2 construct: ubiquitin, distal unit of M1-linked (linear) diUb; ubiquitin, proximal unit of M1-linked (linear) diUb; also called M1-linked diUb; linear diUb

[3] = target: the molecule itself; test: SEC; analytical size exclusion, Superose 12 10/300; 50 mM HEPES pH 8.5, 150 mM NaCl, 1 mM DTT, 0.5% Triton X-100
monoUb [4] = target: T1, monoUb; test: SPR; Biacore S200; TF-N4BP1 fragment amine-coupled to a CM5 chip, mono- and diUb flowed over at 30 μl/min; HBS-P+ (10 mM HEPES pH 7.4, 150 mM NaCl, 0.05% Tween 20), 25 °C; KD from plateau levels; details: both partners purified
M1-diUb [5] = target: T2, M1-diUb; test: as above; details: both partners purified

- Kd (monoUb [1]): 27.5 ± 5.6 µM
- dH (monoUb [1]): -5.2 kcal/mol
- stoichiometry N (monoUb [1]): 0.915
- dH (M1-diUb [2]): -5.3 kcal/mol
- stoichiometry N (M1-diUb [2]): 2.16
B1: N4BP1 (850–893) (domain or fragment, mouse, UniProt Q6A037 850-893, looked up)
chain: ETSELREALLKIFPDSEQKLKIDQILAAHPYMKDLNALSALVLD
notes: His-tag removed with 3C protease for ITC and NMR; 15N- or 15N/13C-labelled for NMR; also called isolated CUE domain; N4BP1 CUE domain; not shown: His-tag, N-terminal, cleaved
- binding result [3]: binds

- Kd (monoUb [4]): 84.9 µM
- Kd (M1-diUb [5]): 0.43 µM
B2: TF-N4BP1 (613–893) (domain or fragment, mouse, UniProt Q6A037 613-893, looked up)
chain: ADLKHIVIDGSNVAITHGLKKFFSCRGIAIAVEYFWKLGNRNITVFVPQWRTRRDPNITEQHFLTQLQELGILSLTPARMVFGERIASHDDRFLLHLADKTGGIIVTNDNFREFVTESVSWREIITKRLLQYTFVGDIFMVPDDPLGRNGPRLEEFLRKEAFLRHMQPLLNALPSVGTFDPGFRSPSTQVANNSHQPPPRIQTSSSPWLPQQSHFTALATLPSMQQNPPLPAQRSSAETSELREALLKIFPDSEQKLKIDQILAAHPYMKDLNALSALVLD
notes: also called dimeric N4BP1

B3: N4BP1 (613–893), from pCold-I, His-tagged (domain or fragment, mouse, UniProt Q6A037 613-893, looked up)
chain: ADLKHIVIDGSNVAITHGLKKFFSCRGIAIAVEYFWKLGNRNITVFVPQWRTRRDPNITEQHFLTQLQELGILSLTPARMVFGERIASHDDRFLLHLADKTGGIIVTNDNFREFVTESVSWREIITKRLLQYTFVGDIFMVPDDPLGRNGPRLEEFLRKEAFLRHMQPLLNALPSVGTFDPGFRSPSTQVANNSHQPPPRIQTSSSPWLPQQSHFTALATLPSMQQNPPLPAQRSSAETSELREALLKIFPDSEQKLKIDQILAAHPYMKDLNALSALVLD
notes: source: E. coli BL21, purified
- binding result [3]: binds

B4: N4BP1 (613-774), from pCold-I, His-tagged (domain or fragment, mouse, UniProt Q6A037 613-774, looked up)
chain: ADLKHIVIDGSNVAITHGLKKFFSCRGIAIAVEYFWKLGNRNITVFVPQWRTRRDPNITEQHFLTQLQELGILSLTPARMVFGERIASHDDRFLLHLADKTGGIIVTNDNFREFVTESVSWREIITKRLLQYTFVGDIFMVPDDPLGRNGPRLEEFLRKEAF
notes: N4BP1, mouse, RNase domain, residues 613-774; source: E. coli BL21, purified
- binding result [3]: binds
